B1: Interleukin-10 receptor subunit alpha (Homo sapiens), Q13651 (parent)
chain: MLPCLVVLLAALLSLRLGSDAHGTELPSPPSVWFEAEFFHHILHWTPIPNQSESTCYEVALLRYGIESWNSISNCSQTLSYDLTAVTLDLYHSNGYRARVRAVDGSRHSNWTVTNTRFSVDEVTLTVGSVNLEIHNGFILGKIQLPRPKMAPANDTYESIFSHFREYEIAIRKVPGNFTFTHKKVKHENFSLLTSGEVGEFCVQVKPSVASRSNKGMWSKEECISLTRQYFTVTNVIIFFAFVLLLSGALAYCLALQLYVRRRKKLPSVLLFKKPSPFIFISQRPSPETQDTIHPLDEEAFLKVSPELKNLDLHGSTDSGFGSTKPSLQTEEPQFLLPDPHPQADRTLGNREPPVLGDSCSSGSSNSTDSGICLQEPSLSPSTGPTWEQQVGSNSRGQDDSGIDLVQNSEGRAGDTQGGSALGHHSPPEPEVPGEEDPAAVAFQGYLRQTRCAEEKATKTGCLEEESPLTDGLGPKFGRCLVDEAGLHPPALAKGYLKQDPLEMTLASSGAPTGQWNQPTEEWSLLALSSCSDLGISDWSFAHDLAPLGCVAAPGGLLGSFNSDLVTLPLISSLQSSE
B2: Interleukin-10 receptor subunit alpha (Mus musculus), Q61727 (parent)
chain: MLSRLLPFLVTISSLSLEFIAYGTELPSPSYVWFEARFFQHILHWKPIPNQSESTYYEVALKQYGNSTWNDIHICRKAQALSCDLTTFTLDLYHRSYGYRARVRAVDNSQYSNWTTTETRFTVDEVILTVDSVTLKAMDGIIYGTIHPPRPTITPAGDEYEQVFKDLRVYKISIRKFSELKNATKRVKQETFTLTVPIGVRKFCVKVLPRLESRINKAEWSEEQCLLITTEQYFTVTNLSILVISMLLFCGILVCLVLQWYIRHPGKLPTVLVFKKPHDFFPANPLCPETPDAIHIVDLEVFPKVSLELRDSVLHGSTDSGFGSGKPSLQTEESQFLLPGSHPQIQGTLGKEESPGLQATCGDNTDSGICLQEPGLHSSMGPAWKQQLGYTHQDQDDSDVNLVQNSPGQPKYTQDASALGHVCLLEPKAPEEKDQVMVTFQGYQKQTRWKAEAAGPAECLDEEIPLTDAFDPELGVHLQDDLAWPPPALAAGYLKQESQGMASAPPGTPSRQWNQLTEEWSLLGVVSCEDLSIESWRFAHKLDPLDCGAAPGGLLDSLGSNLVTLPLISSLQVEE

Results on five variants are retold here after IntAct's records for PubMed 22087322.

One assay covers variants of B1. To be noted: with fbw1a_human BTRC.
For S370A, the “effect of a mutation on the interaction” value is listed as “decreasing interaction strength”.
The same measure, in the same setting: the value for S319A;S323A;S370A was “disrupting interaction strength”; that for S319A;S323A was “decreasing interaction strength”.

Another assay covers variants of B2. Particulars: with fbw1a_human BTRC.
As for S320A;S324A;S367A, the “effect of a mutation on the interaction” value is on record as “disrupting interaction strength”.
Same read-out and setting: the value for S320A;S324A was “decreasing interaction strength”.
